This data set in a line: soluble on expression in E. coli; label from the status in PepcDB or PDB records.
“MTIAKDYRTIYRNQIKKQIRLNQEHLQSLTHLGSQINFEVDPPKLPDPDPARKVFFFDIDNTLYRKSTKVQLLMQQSLSNFFKYELGFDDDEAERLIESYYQEYGLSVKGLIKNKQIDDVLQYNTFIDDSLPLQDYLKPDWKLRELLINLKKKKLGKFDKLWLFTNSYKNHAIRCVKILGIADLFDGITYCHYDRPIEEEFICKPDPKFFETAKLQSGLSSFANAWFIDDNESNVRSALSMGMGHVIHLIEDYQYESENIVTKDHKNKQQFSILKDILEIPLIMDVEVYRPSSIAIKEMEELEEEGEAVNWSNQQINVQSS”: the “soluble on expression in E. coli” value is given as “soluble”.
Consider “MTIAQEPTALNFECETGNYHTFCPISCVAWLYQKIEDSFFLVIGTKTCGYFLQNAMGVMIFAEPRYAMAELEEGDISAQLNDYAELKRLCEQIKRDRNPSVIVWIGTCTTEIIKMDLEGLAPKLEGEIGIPIVVARANGLDYAFTQGEDTVLAAMAHRCPDKAPVAELEHHHHHH”, for which the “soluble on expression in E. coli” value is “not soluble”.
The result for “MTIDDSNRLLMDVDQFDFLDDGTAQLSNNKTDEEEQLYKRDPVSGAILVPMTVNDQPIEKNGDKMPLKFKLGPLSYQNMAFITAKDKYKLYPVRIPRLDTSKEFSAYVSGLFEIYRDLGDDRVFNVPTIGVVNSNFAKEHNATVNLAMEAILNELEVFIGRVKDQDGRVNRFYELEESLTVLNCLRTMYFILDGQDVEENRSEFIESLLNWINRSDGEPDEEYIEQVFSVKDSTAGKKVFETQYFWKLLNQLVLRGLLSQAIGCIERSDLLPYLSDTCAVSFDAVSDSIELLKQYPKDSSSTFREWKNLVLKLSQAFGSSATDISGELRDYIEDFLLVIGGNQRKILQYSRTWYESFCGFLLYYIPSLELSAEYLQMSLEANVVDITNDWEQPCVDIISGKIHSILPVMESLDSCTAAFTAMICEAKGLIENIFEGEKNSDDYSNEDNEMLEDLFSYRNGMASYMLNSFAFELCSLGDKELWPVAIGLIALSATGTRSAKKMVIAELLPHYPFVTNDDIEWMLSICVEWRLPEIAKEIYTTLGNQMLSAHNIIESIANFSRAGKYELVKS” reads “soluble”.
The result for “MTIKEMPQPKTFGELKNLPLLNTDKPVQALMKIADELGEIFKFEAPGRVTRYLSSQRLIKEACDESRFDKNLSQALKFVRDFAGDGLFTSWTHEKNWKKAHNILLPSFSQQAMKGYHAMMVDIAVQLVQKWERLNADEHIEVPEDMTRLTLDTIGLCGFNYRFNSFYRDQPHPFITSMVRALDEAMNKLQRANPDDPAYDENKRQFQEDIKVMNDLVDKIIADRKASGEQSDDLLTHMLNGKDPETGEPLDDENIRYQIITFLIAGHETTSGLLSFALYFLVKNPHVLQKAAEEAARVLVDPVPSYKQVKQLKYVGMVLNEALRLWPTAPAFSLYAKEDTVLGGEYPLEKGDELMVLIPQLHRDKTIWGDDVEEFRPERFENPSAIPQHAFKPFGNGQRACPGQQFALHEATLVLGMMLKHFDFEDHTNYELDIKETLTLKPEGFVVKAKSKKIPLGGIPSPSTEQSAKKVRKKAENAHNTP” reads “soluble”.
Next, “MTIKIALLGFGTVAKGIPYLLKENQHKLLSLEGEDIVIDKVLVRDNESRQRFINQGFTYNFVTEINTILQDSQIDIVVELMGGIEPAKTYLSQALGFGKHIVTANKDLIALHGKELMDLADARGLALFYEGAVAGGIPILRTLSHSFASDKMTRLLGILNGTSNFMLTKMFEEGW”: “not soluble”; “MTIKKYKTALSGMFPEEIQSFCGLKEKFRAQQIFHWIASGVNSFDEMTNLSFDMRSKLKNDFSLFSTKIKEALKDKDGTIKLAVELYDGSVIETVLLTDKAKRKTACVSCQAGCPMKCAFCKTGQIGFLRNLSASEIVEQFLHLEREAGSLDNIVFMGMGEPMLNLPEIDKAINILAHPKGRNLSKRRITISTSGLCKGIYEMADKGPEVRLAVSLTTADETLRSELMPITKTNSLDELKQAIKYFNSKSNKRVTLELALMKGLNTDKKAAQEVIEFAKGLECFINLIPWNPVEGLNFKTPSETEVRTFETYLKKAGLNISTRQKRGQSIGGACGQLGSTAARSNRF”: “not soluble”.
On to “MTIYEQHFIFSDRIVPIRVRENKYARRLILRIDARGREICVTTPPAINLYSIQGFIAKHQSWIEARLARVQIAHANSYLKEGTKIPLLGIPHTIQRKEGRGITEIVAGDVRQEPKIVVYGQLEYLPRRIADVLKKQAALIITPLVKCYARKVERKVKSICYKDTKSRWGSCSIHGNLSFSWRLVMAPQEVIEYVVAHEVAHLIEMNHGPKFWALCEKLCPKSEAYRTWLKENGHMLQAVNFHSYRLEI”, for which the “soluble on expression in E. coli” value was “not soluble”.
Next, “MTIYHFVGIKGSGMSALAQILHDKGFQVQGSDVDKYFFTQKALEEKQIPIMTFSADNIKEGLTIIAGNAFPDTHEEIERANELNLPVIRYHKFLGQLIDGYTSIAITGSHGKTSTTGLLSHVVGAIRPTSYLIGDGTGSGTKDAKYFALEACEYQRHFLAYKPTYAIMTNIDWDHPDYFKSVDDVFNAFETLGKQVKKAVFALGDDVELRKLSLDVPIIYFGFGSENEFQAKNVKKETTGTKFDVYHRDEFLASFEIPAYGDHNVLNALSVIALCDYEGLPVDEVKKELKTFEGVKRRFSITEKGNQVLVDDYAHHPSEIRATVNAARQKYPNKKIVAVFQPHTFTRTRTFLQGFADSLNLADEVYLCDIFGSAREKTGNLTIADLAHKTKGNHIIKEEHTEELLQYPEAVILFMGAGDVQKFQAAYEKVLDNEIVANEVLKKSAIN”: “not soluble”; “MTKITVVGAGSWGTALAMVLADNGHDVRIWGNRSELMDEINTKHENSRYLPGITLPSTIVAYSSLEEALVDVNVVLIVVPTKAYREVLQDMKKYVAGPTTWIHASKGIEPGTSKRISEVIEEEIPEDLIKDVVVLSGPSHAEEVGLRQATTVTSAAKRMEAAEEVQDLFMNSYFRVYTNPDIVGVELGGALKNIIALAAGITDGLGLGDNAKAALMTRGLTEIARLGRKMGGNPLTFAGLTGMGDLIVTCTSVHSRNWRAGNMLGKGHSLEEVLESMGMVVEGVRTTKAAHELAEKMEVEMPITAALYDVLFNGNNVKDAVGSLMGRVRKHEVEAIPDLL”: “not soluble”.
The result for “MTKKALSAVILAAGKGTRMYSDLPKVLHTIAGKPMVKHVIDTAHQLGSENIHLIYGHGGDLMRTHLANEQVNWVLQTEQLGTAHAVQQAAPFFKDNENIVVLYGDAPLITKETLEKLIEAKPENGIALLTVNLDNPTGYGRIIRENGNVVAIVEQKDANAEQLNIKEVNTGVMVSDGASFKKWLARVGNNNAQGEYYLTDLIALANQDNCQVVAVQATDVMEVEGANNRLQLAALERYFQNKQASKLLLEGVMIYDPARFDLRGTLEHGKDVEIDVNVIIEGNVKLGDRVKIGTGCVLKNVVIGNDVEIKPYSVLEDSIVGEKAAIGPFSRLRPGAELAAETHVGNFVEIKKSTVGKGSKVNHLTYVGDSEIGSNCNIGAGVITCNYDGANKFKTIIGDDVFVGSDTQLVAPVKVANGATIGAGTTITRDVGENELVITRVAQRHIQGWQRPIKKK” reads “soluble”; that for “MTKKVVVHQIVGHRFLGVNEQGDKVMIDGDQPSTGPRPMELLLMALGACTAYDVVDIMRKKKQPLARYRVEVEGERAETHPRRYTRITVTHIASGPGVTLEALERAVHLSHTKYCSVSATLNAEITTRVVLEPWEGEEGEG”, “soluble”; that for “MTKNKSVARDERYYKAYLESRTISRRGLFRGLLKGVQPSTTTAPSDITAPPPLRPPYAIDEPHFQQSCTGCGVCVAACEENLIVMVNQRPALNFSTPYFSTPYCSRCQACSTACQTGALSSAEFHIAARPSVKNICQNTYIYCDSCADYCEKQALIWQANQPPTLVTELCDGCGECVFRCPARILEMQI”, “not soluble”.
Regarding “MTKTRRRGAELENAIYQAARDILNQDGLEQLTFANVAEQAGTSKPVIYRRWRSPLELAIAAIQDQIITENHGQLDEVSLTGQTLSEDLFQVLKRFTVSINTFNQALVITWFHHLDQQANPEVKDLLNAVKKIDAHAIERVCQRAQQRGELRTGTLSCDLQLMPFDWLRYRAFANEPITDATLHLLVDDLLVPAYQHALG”, the “soluble on expression in E. coli” value is “not soluble”.
On to “MTKTTILLLCGGGSSEHEISLVSANYIQQQLELTPEFHVIRVEMKKEGWFSEQGALVYLDTNSATLNSDKASYPIDFVVPCIHGFPGETGDIQSMLELAGIPYLGCGPEASANSFNKITSKLWYDALDIPNTPYLFLTQNTPSSIDKAKQAFGHWGSIFVKAARQGSSVGCYKVTTEDQIAPAIEAAFGFSEQVLVEQAVKPRELEVSAYEMNGKLYISKPGEVIAPEGTFYSYEEKYSANSHARTVLEAENLTEKHKELIQTYAERVFIHMKLRHLSRIDFFLTQEGQIYLNEVNTFPGMTPISMFPKMLEHNGHRFSEFLVQCVTNTLVNAK”, for which the “soluble on expression in E. coli” value is reported as “not soluble”.
Next, “MTKVERLLINYKTLEEFKKFKEYGIQELSMLEELQDNIIENDSTSPFYGIYFGDKLVARMSLYQVNGKSNPYFDNRQDYLELWKLEVLPGYQNRGYGRALVEFAKSFKMPIRTNPRMKSAEFWNKMNFKTVKYDMARDKGEDPLIWHPDMDREMTPGESA”: “soluble”; “MTLDEEYLDITFLTENGFVRKRCPKCGKHFWTADPEREICGDPPCESYSFIGNPVFKKPFELDEMREYYLNFFERRGHGRIERYPVVARWRTDIYLTIASIADFQPFVTSGVAPPPANPLTISQPCIRLDDLDSVGRTGRHLTLFEMMAHHAFNYPGKEIYWKNETVAYCTELLNELGVKKEDIVYKEEPWAGGGNAGPCLEAIVGGLEVATLVFMNLEEHPEGDIEIKGARYRKMDNYIVDTGYGLERFVWASKGTPTVYDAIFPEVVDTIIDNSNVSFNREDERVRRIVAESSKLAGIMGELRGERLNQLRKSVADTVGVSVEELEGIVVPLEKVYSLADHTRCILFMLGDGLVPSNAGAGYLARLMIRRSLRLAEELELGLDLYDLVEMHKKILGFEFDVPLSTVQEILELEKERYRTTVSKGTRLVERLVERKKKLEKDDLIELYDSHGIPVELAVGIAAEKGAEVEMPKDIYAELAKRHSKAEKVQEKKITLQNEYPATEKLYYDDPTLLEFEAEVIGVEGDFVILNRSAFYPESGGQDNDVGYLIANGGKFEVVDVLEADGVVLHVVKGAKPEVGTKVKGVIDSDVRWRHMRHHSATHVLLYSLQKVLGNHVWQAGARKEFSKARLDVTHFRRPSEEEIKEIEMLANREILANKPIKWEWMDRIEAERKFGFRLYQGGVPPGRKIRVVQVGDDVQACGGTHCRSTGEIGMLKILKVESIQDGVIRFEFAAGEA”: “soluble”.
The result for “MTLKLIGAGFGRTGTWSTFAALNRLGLPCYHMQEVIMNKANKGHLDFWRKVANSPPGSQHDWNRVFANYTATVDNPGCCVWKELLAAYPDAKVLLTLHPRGAEAWYESTIDTIYFTENVWQFKILEWLTPFGWKFGDMSRKLIWGRTLDGVMNDRAKAVARYNTYVEQVKAAVPPHKLLVYKVTEGWAPLCDFLGLEHHHHHH” reads “soluble”; that for “MTLNPRQSALVELVRTQGSATIEALARHFDVTLQTVRRDVNLLSEAGMLSRFHGGVRIESSTIENIAYRKRQGLHAEGKRRIAEAVARAVPDGCSLLINIGTTTEAIARALLRHRGLRVITNNLHVADILSDNPDCEVIVAGGVVRSRDRGIVGEATLDFIRQFKVDIGLIGISGIEADGTLRDYDFREVRVARAIIEQSREVWLAADSSKFQRQAMVELVHVSRIHRFFTDTQPQEPLAQVLQDAGVRCDVAAQSAGAAAALEHHHHHH”, “not soluble”.
The result for “MTLPQTMKAAVVHAYGAPLRIEEVKVPLPGPGQVLVKIEASGVCHTDLHAAEGDWPVKPPLPFIPGHEGVGYVAAVGSGVTRVKEGDRVGIPWLYTACGCCEHCLTGWETLCESQQNTGYSVNGGYAEYVLADPNYVGILPKNVEFAEIAPILCAGVTVYKGLKQTNARPGQWVAISGIGGLGHVAVQYARAMGLHVAAIDIDDAKLELARKLGASLTVNARQEDPVEAIQRDIGGAHGVLVTAVSNSAFGQAIGMARRGGTIALVGLPPGDFPTPIFDVVLKGLHIAGSIVGTRADLQEALDFAGEGLVKATIHPGKLDDINQILDQMRAGQIEGRIVLEM” reads “soluble”.

Source of the values: the DeepSol protein solubility set.
